{
  "source": "patent US20090215120A1",
  "about": "(UNIVERSITY OF MEDICINE AND DENTISTRY OF NEW JERSEY, published 2009)",
  "key": {"[1]": {"biological_target": "T1, EnvZc, the cytoplasmic domain of EnvZ (histidine kinase of E. coli) (E. coli, UniProt P0AEJ4 180-450)", "T1 construct": "domain: cytoplasmic domain of EnvZ; Purified EnvZc", "T1 sequence": "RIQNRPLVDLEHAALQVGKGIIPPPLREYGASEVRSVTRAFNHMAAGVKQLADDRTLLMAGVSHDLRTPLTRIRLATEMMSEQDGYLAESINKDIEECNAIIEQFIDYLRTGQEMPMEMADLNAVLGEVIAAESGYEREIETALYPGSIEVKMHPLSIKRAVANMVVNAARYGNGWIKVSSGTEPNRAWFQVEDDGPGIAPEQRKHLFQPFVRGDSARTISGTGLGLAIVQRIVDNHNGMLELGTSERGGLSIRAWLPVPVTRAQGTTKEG", "assay": "10% native PAGE, 4 uM of each protein, 5 min at room temperature"}, "[2]": {"biological_target": "T2, OmpR, transcription factor (response regulator) of E. coli, P0AA16", "T2 chain": "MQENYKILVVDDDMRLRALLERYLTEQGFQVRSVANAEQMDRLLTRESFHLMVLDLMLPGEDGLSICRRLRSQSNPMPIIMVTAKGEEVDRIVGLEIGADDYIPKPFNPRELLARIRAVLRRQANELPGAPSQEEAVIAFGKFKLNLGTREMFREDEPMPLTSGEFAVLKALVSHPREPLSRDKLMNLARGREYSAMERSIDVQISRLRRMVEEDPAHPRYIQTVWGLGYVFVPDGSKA"}, "[3]": {"biological_target": "PrS2-OmpR (OmpR fused to two tandem repeats of the N-terminal domain, residues 1-92, of protein S of Myxococcus xanthus), P02966", "sequence (P02966 whole entry, looked up, the tested form may be a part)": "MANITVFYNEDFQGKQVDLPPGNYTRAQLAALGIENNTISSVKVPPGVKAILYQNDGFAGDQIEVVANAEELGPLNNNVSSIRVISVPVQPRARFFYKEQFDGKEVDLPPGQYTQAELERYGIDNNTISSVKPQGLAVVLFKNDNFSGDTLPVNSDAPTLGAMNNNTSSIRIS"}, "[4]": {"biological_target": "T3, phosphorylated OmpR (OmpR-P), P0AA16", "T3 chain": "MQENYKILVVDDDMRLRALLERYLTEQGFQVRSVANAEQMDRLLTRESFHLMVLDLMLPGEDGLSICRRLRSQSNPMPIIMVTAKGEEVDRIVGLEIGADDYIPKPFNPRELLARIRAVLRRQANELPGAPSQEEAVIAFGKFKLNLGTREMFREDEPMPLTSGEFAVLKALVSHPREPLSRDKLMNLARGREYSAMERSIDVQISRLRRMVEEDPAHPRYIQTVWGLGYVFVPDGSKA"}, "[5]": {"biological_target": "phosphorylated PrS2-OmpR (PrS2-OmpR-P)"}},
  "data": [
    {"binder": "OmpR, transcription factor (response regulator) of E. coli (other, Purified wild-type OmpR; also called wild-type OmpR; non-tagged OmpR) MQENYKILVVDDDMRLRALLERYLTEQGFQVRSVANAEQMDRLLTRESFHLMVLDLMLPGEDGLSICRRLRSQSNPMPIIMVTAKGEEVDRIVGLEIGADDYIPKPFNPRELLARIRAVLRRQANELPGAPSQEEAVIAFGKFKLNLGTREMFREDEPMPLTSGEFAVLKALVSHPREPLSRDKLMNLARGREYSAMERSIDVQISRLRRMVEEDPAHPRYIQTVWGLGYVFVPDGSKA", "values": [
      {"measurement": "binding result", "setting": "[1]", "value": "binds"}
    ]},
    {"binder": "phosphorylated EnvZc (EnvZc-P), 32P-labelled (protein) RIQNRPLVDLEHAALQVGKGIIPPPLREYGASEVRSVTRAFNHMAAGVKQLADDRTLLMAGVSHDLRTPLTRIRLATEMMSEQDGYLAESINKDIEECNAIIEQFIDYLRTGQEMPMEMADLNAVLGEVIAAESGYEREIETALYPGSIEVKMHPLSIKRAVANMVVNAARYGNGWIKVSSGTEPNRAWFQVEDDGPGIAPEQRKHLFQPFVRGDSARTISGTGLGLAIVQRIVDNHNGMLELGTSERGGLSIRAWLPVPVTRAQGTTKEG", "values": [
      {"measurement": "phosphotransfer from 32P-labelled EnvZc-P to OmpR (SDS-PAGE, autoradiography)", "setting": "[2]", "value": "the phosphoryl group on EnvZ was instantly transferred to OmpR and this reaction was completed in 120 sec"},
      {"measurement": "phosphotransfer from 32P-labelled EnvZc-P to PrS2-OmpR (SDS-PAGE, autoradiography)", "setting": "[3]", "value": "EnvZc-P was able to phosphorylate PrS2-OmpR and the result was almost identical to the non-tagged OmpR"}
    ]},
    {"binder": "EnvZc, the cytoplasmic domain of EnvZ (histidine kinase of E. coli) (protein) RIQNRPLVDLEHAALQVGKGIIPPPLREYGASEVRSVTRAFNHMAAGVKQLADDRTLLMAGVSHDLRTPLTRIRLATEMMSEQDGYLAESINKDIEECNAIIEQFIDYLRTGQEMPMEMADLNAVLGEVIAAESGYEREIETALYPGSIEVKMHPLSIKRAVANMVVNAARYGNGWIKVSSGTEPNRAWFQVEDDGPGIAPEQRKHLFQPFVRGDSARTISGTGLGLAIVQRIVDNHNGMLELGTSERGGLSIRAWLPVPVTRAQGTTKEG", "values": [
      {"measurement": "dephosphorylation of OmpR-P by EnvZc upon addition of ADP (SDS-PAGE, autoradiography)", "setting": "[4]", "value": "OmpR-P was quickly dephosphorylated and Pi was released"},
      {"measurement": "dephosphorylation of PrS2-OmpR-P by EnvZc upon addition of ADP (SDS-PAGE, autoradiography)", "setting": "[5]", "value": "Although in case of PrS2-OmpR, this reaction was slowed by PrS2 tag, phosphorylated PTS2-OmpR was dephosphorylated by EnvZc"}
    ]}
  ]
}
